Results on five molecules are retold here after patent publication US20220033462A1 (ALLOGENE THERAPEUTICS, published 2022).

B1: N-CAR PD1-PD1 (SEQ ID No 1999 with intracellular domain SEQ ID No 2005) (other)
chain: EVQLQQSGPELVKPGTSVRISCKTSGYTFTEYTIHWVKQSHGKSLEWIGNINPNNGGTTYNQKFEDKATLTVDKSSSTAYMELRSLTSEDSAVYYCAAGWNFDYWGQGTTVTVSSGGGGSGGGGSGGGGSDIVMTQSHKFMSTSVGDRVSIICKASQDVGTAVDWYQQKPGQSPKLLIYWASTRHTGVPDRFTGSGSGTDFTLTITNVQSEDLADYFCQQYNSYPLTFGAGTMLDLKRAAATERRAEVPTAHPSPSPRPAGQFQTLVVGVVGGLLGSLVLLVWVLAVICSRAARGTIGARRTGQPLKEDPSAVPVFSVDYGELDFQWREKTPEPPVPCVPEQTEYATIVFPSGMGTSSPARRGSADGPRSAQPLRPEDGHCSWPLCSRAARGTIGARRTGQPLKEDPSAVPVFSVDYGELDFQWREKTPEPPVPCVPEQTEYATIVFPSGMGTSSPARRGSADGPRSAQPLRPEDGHCSWPL
B2: N-CAR CD300LF (SEQ ID No 1999 with intracellular domain SEQ ID No 2007) (other)
chain: EVQLQQSGPELVKPGTSVRISCKTSGYTFTEYTIHWVKQSHGKSLEWIGNINPNNGGTTYNQKFEDKATLTVDKSSSTAYMELRSLTSEDSAVYYCAAGWNFDYWGQGTTVTVSSGGGGSGGGGSGGGGSDIVMTQSHKFMSTSVGDRVSIICKASQDVGTAVDWYQQKPGQSPKLLIYWASTRHTGVPDRFTGSGSGTDFTLTITNVQSEDLADYFCQQYNSYPLTFGAGTMLDLKRAAATERRAEVPTAHPSPSPRPAGQFQTLVVGVVGGLLGSLVLLVWVLAVIWRMMKYQQKAAGMSPEQVLQPLEGDLCYADLTLQLAGTSPQKATTKLSSAQVDQVEVEYVTMASLPKEDISYASLTLGAEDQEPTYCNMGHLSSHLPGRGPEEPTEYSTISRP
B3: N-CAR PECAM (SEQ ID No 1999 with intracellular domain SEQ ID No 2009) (other)
chain: EVQLQQSGPELVKPGTSVRISCKTSGYTFTEYTIHWVKQSHGKSLEWIGNINPNNGGTTYNQKFEDKATLTVDKSSSTAYMELRSLTSEDSAVYYCAAGWNFDYWGQGTTVTVSSGGGGSGGGGSGGGGSDIVMTQSHKFMSTSVGDRVSIICKASQDVGTAVDWYQQKPGQSPKLLIYWASTRHTGVPDRFTGSGSGTDFTLTITNVQSEDLADYFCQQYNSYPLTFGAGTMLDLKRAAATERRAEVPTAHPSPSPRPAGQFQTLVVGVVGGLLGSLVLLVWVLAVIKCYFLRKAKAKQMPVEMSRPAVPLLNSNNEKMSDPNMEANSHYGHNDDVRNHAMKPINDNKEPLNSDVQYTEVQVSSAESHKDLGKKDTETVYSEVRKAVPDAVESRYSRTEGSLDGT
B4: N-CAR PD1-TIM3 (SEQ ID No 1999 with intracellular domain SEQ ID No 2006) (other)
chain: EVQLQQSGPELVKPGTSVRISCKTSGYTFTEYTIHWVKQSHGKSLEWIGNINPNNGGTTYNQKFEDKATLTVDKSSSTAYMELRSLTSEDSAVYYCAAGWNFDYWGQGTTVTVSSGGGGSGGGGSGGGGSDIVMTQSHKFMSTSVGDRVSIICKASQDVGTAVDWYQQKPGQSPKLLIYWASTRHTGVPDRFTGSGSGTDFTLTITNVQSEDLADYFCQQYNSYPLTFGAGTMLDLKRAAATERRAEVPTAHPSPSPRPAGQFQTLVVGVVGGLLGSLVLLVWVLAVICSRAARGTIGARRTGQPLKEDPSAVPVFSVDYGELDFQWREKTPEPPVPCVPEQTEYATIVFPSGMGTSSPARRGSADGPRSAQPLRPEDGHCSWPLFKWYSHSKEKIQNLSLISLANLPPSGLANAVAEGIRSEENIYTIEENVYEVEEPNEYYCYVSSRQQPSQPLGCRFAMP
B5: N-CAR LY9 (SEQ ID No 1999 with intracellular domain SEQ ID No 2008) (other)
chain: EVQLQQSGPELVKPGTSVRISCKTSGYTFTEYTIHWVKQSHGKSLEWIGNINPNNGGTTYNQKFEDKATLTVDKSSSTAYMELRSLTSEDSAVYYCAAGWNFDYWGQGTTVTVSSGGGGSGGGGSGGGGSDIVMTQSHKFMSTSVGDRVSIICKASQDVGTAVDWYQQKPGQSPKLLIYWASTRHTGVPDRFTGSGSGTDFTLTITNVQSEDLADYFCQQYNSYPLTFGAGTMLDLKRAAATERRAEVPTAHPSPSPRPAGQFQTLVVGVVGGLLGSLVLLVWVLAVIKRKGRCSVPAFCSSQAEAPADTPEPTAGHTLYSVLSQGYEKLDTPLRPARQQPTPTSDSSSDSNLTTEEDEDRPEVHKPISGRYEVFDQVTQEGAGHDPAPEGQADYDPVTPYVTEVESVVGENTMYAQVFNLQGKTPVSQKEESSATIYCSIRKPQVVPPPQQNDLEIPESPTYENFT

The target of this experiment is T1, biotinylated recombinant human PSMA-human IgG1 Fc fusion protein (human, UniProt Q04609 44-750, biotinylated (sites not given)).
T1 construct: Staining reagent; not shown: human IgG1 Fc
T1 sequence (Q04609 44-750 limits assumed): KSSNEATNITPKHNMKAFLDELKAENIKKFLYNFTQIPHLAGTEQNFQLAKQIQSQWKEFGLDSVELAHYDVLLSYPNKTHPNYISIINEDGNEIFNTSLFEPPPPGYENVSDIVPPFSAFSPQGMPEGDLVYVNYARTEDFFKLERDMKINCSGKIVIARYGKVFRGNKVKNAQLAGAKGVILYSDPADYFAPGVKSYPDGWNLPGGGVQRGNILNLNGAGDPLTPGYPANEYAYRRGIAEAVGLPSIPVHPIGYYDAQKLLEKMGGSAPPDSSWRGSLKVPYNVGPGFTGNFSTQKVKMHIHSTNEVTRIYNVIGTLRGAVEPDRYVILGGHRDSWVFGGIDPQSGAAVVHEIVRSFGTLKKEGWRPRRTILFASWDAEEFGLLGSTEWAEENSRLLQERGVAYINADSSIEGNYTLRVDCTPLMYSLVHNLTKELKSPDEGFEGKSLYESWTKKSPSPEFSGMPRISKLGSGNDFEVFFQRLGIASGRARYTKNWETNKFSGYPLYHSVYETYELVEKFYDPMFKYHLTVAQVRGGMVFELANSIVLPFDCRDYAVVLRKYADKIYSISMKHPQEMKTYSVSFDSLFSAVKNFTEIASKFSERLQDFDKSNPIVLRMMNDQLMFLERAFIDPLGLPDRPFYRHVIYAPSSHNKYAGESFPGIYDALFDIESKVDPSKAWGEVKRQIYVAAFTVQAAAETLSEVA
The experiment can be described thus: flow cytometry, reporter Jurkat cells co-expressing P-CAR1 (FIGS. 1-4). A general note: In flow cytometry, cells or beads pass a laser one at a time.
Take B1: the binding result is recorded as “binds”.
For B2 the value was “binds”; for B3, “binds”; for B4, “binds”.
For B5, the binding result is “binds”.
